Measurements reported in article PMC3743950.

What was measured:
[1] = target: TtP5CDHR153A (Thermus thermophilus HB27); assay: DLS
[2] = target: TtP5CDHK104A (Thermus thermophilus HB27); assay: DLS
[3] = target: Δ1-pyrroline-5-carboxylate dehydrogenase from Bacillus halodurans (Bacillus halodurans); assay: SAXS + other: DLS
[4] = target: TtP5CDHR100A/K104A/R111A (Thermus thermophilus HB27); assay: DLS
[5] = target: DrP5CDHR102A (Deinococcus radiodurans); assay: SAXS + other: DLS
[6] = target: Δ1-pyrroline-5-carboxylate dehydrogenase from Thermus thermophilus (Thermus thermophilus HB27); assay: SAXS + other: DLS
[7] = target: Δ1-pyrroline-5-carboxylate dehydrogenase from Deinococcus radiodurans (Deinococcus radiodurans); assay: SAXS + other: DLS
[8] = target: TtP5CDHR100A (Thermus thermophilus HB27); assay: SAXS + other: DLS
[9] = target: TtP5CDHR111A (Thermus thermophilus HB27); assay: SAXS + other: DLS
[10] = target: Δ1-pyrroline-5-carboxylate dehydrogenase from Bacillus licheniformis (Bacillus licheniformis); assay: DLS

## TtP5CDHR153A (enzyme)
[1]
  stoichiometry N: 6

## TtP5CDHK104A (enzyme)
[2]
  stoichiometry N: 6

## Δ1-pyrroline-5-carboxylate dehydrogenase from Bacillus halodurans (enzyme)
[3]
  stoichiometry N: 2

## TtP5CDHR100A/K104A/R111A (enzyme)
[4]
  stoichiometry N: 2

## DrP5CDHR102A (enzyme)
[5]
  stoichiometry N: 2

## Δ1-pyrroline-5-carboxylate dehydrogenase from Thermus thermophilus (enzyme)
[6]
  stoichiometry N: 6

## Δ1-pyrroline-5-carboxylate dehydrogenase from Deinococcus radiodurans (enzyme)
[7]
  stoichiometry N: 6

## TtP5CDHR100A (enzyme)
[8]
  stoichiometry N: 2

## TtP5CDHR111A (enzyme)
[9]
  stoichiometry N: 6

## Δ1-pyrroline-5-carboxylate dehydrogenase from Bacillus licheniformis (enzyme)
[10]
  stoichiometry N: 2
